Measurements reported in US9481870B2, “Nucleic acid encoding a polypeptide having aminotransferase activity, vectors and host cells comprising the nucleic acid” (KANEKA CORPORATION, priority 2010, dated 2016).

Test: Optimum temperature of transamination activity
Format: biochemical
Method: The transamination activity of purified TPM was examined under the following activity assay conditions. Specifically, purified TPM was added to a substrate solution with the composition given below to a total amount of 1 mL. After 5 minutes of reaction at 30° C., 0.05 mL of 6N hydrochloric acid was added to stop the reaction. HPLC analysis was conducted under the following conditions.
Transamination activity was determined at 10° C., 20° C., 30° C., 40° C., 50° C., 60° C., and 70° C. under the same conditions above.

B1: TPM: purified aminotransferase polypeptide from Pseudomonas sp. MV37, about 50,000 molecular weight, amino acid sequence SEQ ID NO: 1 (protein, listed as Pseudomonas sp.)
chain: MNHLEKMLELDRNHLIHPHLPKSEFSRTIFARGKGCKLWDTEGREYLDATGGLWLAQIGHGREEIAEVAARQMKQLEYFTCFWDFSNERAIELAEKLARLAPGDLEMSFFTSGGSEGDDAAIKTARYYHSQRGEPKRTWILSRNNAYHGLAYGGGTATGFPELRDGMGPGLPHVAYLTQPNAYRHYYFDGQNPTDFCVSELEKMIASIGAENIAAMIAEPIMGVGGMVPPPVDYWPRMSQVLKKNGILLIFDEVVSAFGRSGHWFAAEKYGVIPDIMVTAKGISSGYIPLGAVIMSRDVADTVREGHGYPLGYTYSGHPVACAVALENLRILEDEDLINRSNHMGTYIAEQLTALRDNPCVGEVRQAGMGIGIELVTDKESRQPLPDAALVIPDIIREETGVIVRISNATNLCMSPPLTMSREEADRAVEAVCSVLSRVKPDGKV
Question: What does the source list for B1?
Answer: optimum temperature (10° C. to 70° C. tested): 60 °C; Relative activity (Reaction temperature 10° C., activity at 60° C. = 100): 8; Relative activity (Reaction temperature 20° C., activity at 60° C. = 100): 16; Relative activity (Reaction temperature 30° C., activity at 60° C. = 100): 33; Relative activity (Reaction temperature 40° C., activity at 60° C. = 100): 49; Relative activity (Reaction temperature 50° C., activity at 60° C. = 100): 77; Relative activity (Reaction temperature 60° C., designated as 100): 100; Relative activity (Reaction temperature 70° C., activity at 60° C. = 100): 68
